The text below walks through data of the DeepSol protein solubility set.

The nature of this data set: soluble on expression in E. coli; label from the status in PepcDB or PDB records.
Take “MRQIVPKVVVVGAGMGGLASAIRLARAGCEVTLLEAREAPGGRMRTLPSVAGPVDAGPTVLTLREVFDDIFEVCGQKLDHHLTLLPQPLLARHWWLDGSTLDLTTDLEANVEAVAAFAGAREARAFRRFHDLSARLYDAFDRPMMRAARPDLRAIATGALKAPRTWPALLPGMTLDRLLRLFFRDRRLRQLFGRYATYVGGTPYGAPGVLALIWAAEARGVWAIEGGMHRLALALARLADDQGVRLRYGAPVARILRQGGRATGVQLADGRTLPADHIVFNGDPAALLAGCLGDGPQDAVPEDRIHPRSLSAWVWSYAARASGPPLVHHNVFFADDPRREFGPIAAGQMPEDATLYICAEDRSGGQLPDGPERFEIIMNGPPGRPAKPEDFAQCRSRTFDRLRQFGLTFDPVPGETSLTAPSGFASLFPASQGSIYGLSPHGALASLKRPLARTALPGLWLAGGGAHPGAGVPMAALSGRHAAEAILADLASRSRLEHHHHHH”: the “soluble on expression in E. coli” value is given as “not soluble”.

For the sequence “MEELFCIGCGAQIQTEDKEKAGFTPASSIKKAEETGELYCQRCFRLRHYNEIVDVHITDDEFLKLLYEVGDSDALVVNVVDIFDFNGSIIPGLSRFVSGNDVLLVGNKKDILPKSVKDGKVTQWLTERAHEEGMRPVDVMLTSAQNHHAIKELIQRIEALRKGRDVYVVGVTNVGKSTLINAIIKEITGDKDVITTSRFPGTTLDKIEIPLDDGSYIFDTPGIIHRHQMAHYLSAKDLKYVSPKKEIKPKTYQLNAGQTLFLGGLGRFDFIDGDKQGFTAFFDNNLKLHRTKLDGADAFYDKHVGSLLMPPGPKELADFPKLVRHEFTIKDKTDVVFSGLGWIRVQGKTDQPTIVAAWAPEGVGVVVRKAIILEHHHHHH”, the “soluble on expression in E. coli” value is on record as “soluble”.

“MRSLADFEFNKAPLCEGMILACEAIRRDFPSQDVYDELERLVSLAKEEISQLLPLEEQLEKLIALFYGDWGFKASRGVYRLSDALWLDQVLKNRQGSAVSLGAVLLWVANRLDLPLLPVIFPTQLILRIECPDGEIWLINPFNGESLSEHMLDGWLKGNISPSAELFYEDLDEADNIEVIRKLLDTLKASLMEENQMELALRTSEALLQFNPEDPYEIRDRGLIYAQLDCEHVALNDLSYFVERCPEDPISEMIRAQINNIAHKHIVLHMAGDPLEHHHHHH”: the “soluble on expression in E. coli” value was “soluble”.

Consider “MSLSDDIKVLGISGSLRSGSYNSAALQEAIGLVPPGMSIELADISGIPLYNEDVYALGFPPAVERFREQIRAADALLFATPEYNYSMAGVLKNAIDWASRPPEQPFSGKPAAILGASAGRFGTARAQYHLRQTLVFLDVHPLNKPEVMISSAQNAFDAQGRLLDDKARELIQQQLQALQLWVREGGSHHHHHH”, for which the “soluble on expression in E. coli” value is recorded as “soluble”.

As for “MAAKVVLDFEKPLYELEEKLNEMRVYLKSGEVDSMSEGRAGLKREIESLEAKVESLRKTIYKNLTRWQKVQLARHPERPYTLDYIYMMMKDFVELSGDRNFGDDKAIIGGFARLEDESAGFSQSVMVIGHQKGRDTKSNLYRNFGMAQPEGYRKALRLMKLAEKFRKPVITLIDTPGAFPGIEAEERGQAEAIARNLYEMAALKVPVICVIIGEGASGGAIGIGVGDRILMAENAWYSVISPESCSSILWRSWNFKEQAAEALKLTADDLLAQGIIDRIVTEPLGGAHHNPEQMASTLKSILIEELQGLLTKDARTLVDERIAKFSGMGVWEES”, the “soluble on expression in E. coli” value is listed as “not soluble”.

Consider “MGKQRECLVIVEGYDPYVVKVSHDATSYSDYKTGRELPFTIIRMNGFSDSEGVYCCIASDKSMEDHTDEARALLKAYKVKPL”, for which the “soluble on expression in E. coli” value is given as “not soluble”.

With “MATFPHFGTAAIHVGQEPEQWDMNQVVPPISLSSTYKQDNPGEPKGHDYSRAGNPTRDVLQKNLAALEDAKHCQVFSSGLAATSAIINLLKYGDHIVCSDDVYGGTQRYIRRVAVPNHGLEVDSVDLTDVQNLEKAIKPNTKMVWFESPSNPLLKVVDIAAVVQTAKKANPEIVVVVDNTFMSPYFQRPISLGADVVVHSITKYINGHSDVVMGAVITDNDEFQQHLFFMQLAVGAVPSPFDCFLVNRGLKTLHIRMRAHYENALAVAKYLEANDRIESVLYPALPSHPQHEVHEKQTKGMSGMISFYLKGELQESRAFLSALKVFTLAESLGGYESLAELPSIMTHASVPAETRIVLGITDNLIRISVGIEDLDDLVADLDQALKIAIPKV”, the “soluble on expression in E. coli” value is reported as “not soluble”.

“MTFKDLRDFIAQLEQRGALKRIQVPISPVLEMTEVCDRTLRAKGPALLFEKPTGFDMPVLGNLFGTPERVALGMGAEDVGALREIGKLLAQLKEPEPPKGLKDAWAKLPMYRKVLSMAPKVLKDAPCQEVVEEGEDVDLGRLPVQTCWPGDVGPLITWGLTVTRGPNKERQNLGIYRQQVIGRNKVIMRWLSHRGGALDYREWCQKHPGQPYPVAVALGADPATILGAVTPVPDTLSEYAFAGLLRGHRTELVKCRGSDLQVPASAEIVLEGVIHPGEMADEGPYGDHTGYYNEVDRFPVFTVERVTRRQKPIYHSTYTGRPPDEPAILGVALNEVFVPILQKQFPEIVDFYLPPEGCSYRMAVVTMKKQYPGHAKRVMLGVWSFLRQFMYTKFVIVTDDDIDARDWNDVIWAITTRMDPKRDTVMIDNTPIDYLDFASPVSGLGSKMGLDATHKWPGETSREWGRAIVKDEAVTRRIDALWSSLGIDAAALEHHHHHH”: the “soluble on expression in E. coli” value is given as “not soluble”.

“MSLQIIEPDNLIKEGDLRSIRAKTLQSARGIISDRNGEALAVSVPVEAVWADPVAIYKEGGLVEKDRWYALADVLGLDRQEMMKKIEDNRSRRFIYLQRQVSPAMAKYIRELKLAGIGLKEESRRYYPAGEVSAHLVGVTGIDGHGLEGVERSFDSTLTGESGKSVTRKDKFGRVVENIALEEREEGKPIQLTIDQRLQAIAFRAVKQAMADYRATSASAVMLDVKTGAVLAMVNAPSYNPNNRNDWQSFKMRNRVITDAFEPGSTVKPFVVLAALANGIADKNTIIDTGDGTMQIGGSRVRDTSKVGKADLTLILKKSSNIGVAKLALEMPLEALLGMYSSVGLGEMSGLDLVGETIGIFPNRRRWSQFEIATLSFGYGLAITPIQLAHAYATLGNHGKYQPIHIIKGDQHGETRQVVDPKYVNQVLEMLETVTQPGGTATRAAVPGYRIAAKSGTSRKAIAGGYSDEYFAYTAGVAPVSDPRISLVVMVNEPQGDSYYGGAVAGPVFSEIMKGALQILNIAPDENRFQNEGHHHHHH”: the “soluble on expression in E. coli” value is “soluble”.

For “MGSDKIHHHHHHMVIGQKVLLARIPKMGDNYSTYLLDIEGTVCPISFVKETLFPYFTNKVPQLVQQDTRDSPVSNILSQFHIDNKEQLQAHILELVAKDVKDPILKQLQGYVWAHGYESGQIKAPVYADAIDFIKRKKRVFIYSSGSVKAQKLLFGYVQDPNAPAHDSLDLNSYIDGYFDINTSGKKTETQSYANILRDIGAKASEVLFLSDNPLELDAAAGVGIATGLASRPGNAPVPDGQKYQVYKNFETL”, the “soluble on expression in E. coli” value is “soluble”.

On to “MRLLVQNVHKRFGKLEALKGVSLELGAGEILGLLGPNGAGKTTLIKVVLGLLLPDGGEVVLEEGGARRRPQGHEFGVLLEGSRNLYVNLSLLVNALYFGGIRGLPPKEVRPRFEAWLERFGLKDRLHAPLASLSRGMQQKAALALALALKPRFLLLDEPTLGLDPVSRREFEGILLELKKEGWGILLTSHDLEVVERVSDRVAFLHRGEVRRQGPTRVLLREWAGEGYRVRLAEPKAEALLQALGPGWSAEGPEVLFFLGPWEALREALGAFPVEVLEVSRGTPSLEALFLHLFGEARPSPSA”, for which the “soluble on expression in E. coli” value is listed as “soluble”.

With “MIVPPPEELTGARVLAYALIDESTPYSGRITLYVDGELIGPVPRLVIALNNYGPDDYLLLYCNENWDVIGAGGHASLVAAKESANIAYPGVASRWQDVA”, the “soluble on expression in E. coli” value is on record as “not soluble”.

Take “KSTVEKSTVGQKVAIVREDTGTIAELAEKALGNMVDIVYAGSDLKEAEEAVKKEKAPAIIVIPKGFSQSLESGEKARLEIVWYLRGTGLSEAVSTGTISSLIESLKVQLASFLLNDPKKAQLLFDPLEIVQHTYLRGSLFKNHSPEAIMNVFYSQN”: the “soluble on expression in E. coli” value is “soluble”.

On to “MQINNQSRDVFYVSDGTAITCETLGHVVLGQFPFIPNEKTFPFVESQDKVADVVKEIETSYQRNGVKPLVFFSIVVPGVREMLLEAPAYSYDVLESIVQKVQDDIQMAPAPKLQRSRSVGKDSDTYFDRIAAIEYTLAHDDGITLKGLEQADIILLGVSRSGKTPTSLYMAMQFGLRVVNYPFIAEDVKMMRLLPEFEVHRHKLFGLTITPERLNEIRENRLSGSDYASEEQCKLELDTVEALFRREAIPYINTSSLSVEEISTRILERAGMKRRLFGLEHHHHHH”, for which the “soluble on expression in E. coli” value was “soluble”.
